target: APP-Avi-soluble human LOX-1(61-273) (human, UniProt P78380 61-273); test: SET, IgG vs soluble human LOX-1
Experimental: Affinity determination for anti-LOX-1 IgGs using Solution Equilibrium Titration (SET) was basically performed as described in the literature (Friguet et al., 1985 J Immunol Methods 77: 305-319). The assays were performed in a 96-well polypropylene plate (Thermo Scientific, Catalog no. AB-1127) using a constant concentration of LOX-1 antibody mixed with different concentrations of non-biotinylated human or cynomolgus monkey LOX-1 protein and incubated at 22° C. for 14 hours with constant shaking (300 rpm).
On a pre-blocked MSD plate (Meso Scale Discovery, catalog no. L21SA) biotinylated human or cynomolgus monkey soluble LOX-1 protein was immobilized and washed afterwards. The equilibrium binding reactions were then applied to the MSD plate with immobilized LOX-1 and incubated for 30 min. The unbound material was removed by washing the plate, and the captured antibody was detected by adding Sulfo-tagged goat anti-human IgG (Meso Scale Discovery, catalog no. R3AJ-1). After incubation and washing 1×MSD read buffer T(Meso Scale Discovery, catalog no. R92TC-2) was added and the plate was developed using a Sector Imager 6000 (Meso Scale Discovery). The data were transferred to Excel for analysis and plotted using GraphPad Prism v5. The KD values were determined by fitting the data to the following equation: […]

Row | Binder | Kd [pM]
1 | MOR021462 (antibody, V domains shown, IgG (human IgG1f LALA); parent MOR20144 with the printed HCDR2 stretch exchanged) VH: QVQLLESGGGLVQPGGSLRLSCAASGFTFSDYALHWVRQAPGKGLEWVSGISYQGGFIFYADSVKGRFTISRDNSKNTLYLQMNSLRAEDTAVYYCARSPGLTSYHDSWGQGTLVTVSS VL: DIVLTQPPSVSGAPGQRVTISCSGSSSNIGSNYVSWYQQLPGTAPKLLIHSNSHRPSGVPDRFSGSKSGTSASLAITGLQAEDEADYYCQSWDYESERVVFGGGTKLTVLG | 0.9
2 | MOR021463 (antibody, V domains shown, IgG (human IgG1f LALA); parent MOR20144 with the printed HCDR2 stretch exchanged) VH: QVQLLESGGGLVQPGGSLRLSCAASGFTFSDYALHWVRQAPGKGLEWVSVISYMGGFKYYADSVKGRFTISRDNSKNTLYLQMNSLRAEDTAVYYCARSPGLTSYHDSWGQGTLVTVSS VL: DIVLTQPPSVSGAPGQRVTISCSGSSSNIGSNYVSWYQQLPGTAPKLLIHSNSHRPSGVPDRFSGSKSGTSASLAITGLQAEDEADYYCQSWDYESERVVFGGGTKLTVLG | 1.3
3 | MOR021465 (antibody, V domains shown, IgG (human IgG1f LALA); parent MOR20144 with the printed HCDR2 stretch exchanged) VH: QVQLLESGGGLVQPGGSLRLSCAASGFTFSDYALHWVRQAPGKGLEWVSVISYQGAFIYYADSVKGRFTISRDNSKNTLYLQMNSLRAEDTAVYYCARSPGLTSYHDSWGQGTLVTVSS VL: DIVLTQPPSVSGAPGQRVTISCSGSSSNIGSNYVSWYQQLPGTAPKLLIHSNSHRPSGVPDRFSGSKSGTSASLAITGLQAEDEADYYCQSWDYESERVVFGGGTKLTVLG | 1.6
4 | MOR021466 (antibody, V domains shown, IgG (human IgG1f LALA); parent MOR20144 with the printed HCDR2 stretch exchanged) VH: QVQLLESGGGLVQPGGSLRLSCAASGFTFSDYALHWVRQAPGKGLEWVSVISYMGGFKFYADSVKGRFTISRDNSKNTLYLQMNSLRAEDTAVYYCARSPGLTSYHDSWGQGTLVTVSS VL: DIVLTQPPSVSGAPGQRVTISCSGSSSNIGSNYVSWYQQLPGTAPKLLIHSNSHRPSGVPDRFSGSKSGTSASLAITGLQAEDEADYYCQSWDYESERVVFGGGTKLTVLG | 0.6
5 | MOR021467 (antibody, V domains shown, IgG (human IgG1f LALA); parent MOR20144 with the printed HCDR2 stretch exchanged) VH: QVQLLESGGGLVQPGGSLRLSCAASGFTFSDYALHWVRQAPGKGLEWVSVISYQGGFTFYADSVKGRFTISRDNSKNTLYLQMNSLRAEDTAVYYCARSPGLTSYHDSWGQGTLVTVSS VL: DIVLTQPPSVSGAPGQRVTISCSGSSSNIGSNYVSWYQQLPGTAPKLLIHSNSHRPSGVPDRFSGSKSGTSASLAITGLQAEDEADYYCQSWDYESERVVFGGGTKLTVLG | 0.9

The remaining lines, values ahead:

Row | Kd [pM] | Binder
6 | 0.6 | MOR021458 (antibody, V domains shown, IgG (human IgG1f LALA); parent MOR20144 with the printed HCDR2 stretch exchanged) VH: QVQLLESGGGLVQPGGSLRLSCAASGFTFSDYALHWVRQAPGKGLEWVSSISYVGGFIYYADSVKGRFTISRDNSKNTLYLQMNSLRAEDTAVYYCARSPGLTSYHDSWGQGTLVTVSS VL: DIVLTQPPSVSGAPGQRVTISCSGSSSNIGSNYVSWYQQLPGTAPKLLIHSNSHRPSGVPDRFSGSKSGTSASLAITGLQAEDEADYYCQSWDYESERVVFGGGTKLTVLG
7 | 0.4 | MOR021459 (antibody, V domains shown, IgG (human IgG1f LALA); parent MOR20144 with the printed HCDR2 stretch exchanged) VH: QVQLLESGGGLVQPGGSLRLSCAASGFTFSDYALHWVRQAPGKGLEWVSVISYVGGFKFYADSVKGRFTISRDNSKNTLYLQMNSLRAEDTAVYYCARSPGLTSYHDSWGQGTLVTVSS VL: DIVLTQPPSVSGAPGQRVTISCSGSSSNIGSNYVSWYQQLPGTAPKLLIHSNSHRPSGVPDRFSGSKSGTSASLAITGLQAEDEADYYCQSWDYESERVVFGGGTKLTVLG
8 | 0.2 | MOR021461 (antibody, V domains shown, IgG (human IgG1f LALA); parent MOR20144 with the printed HCDR2 stretch exchanged) VH: QVQLLESGGGLVQPGGSLRLSCAASGFTFSDYALHWVRQAPGKGLEWVSVISYAGGFTYYADSVKGRFTISRDNSKNTLYLQMNSLRAEDTAVYYCARSPGLTSYHDSWGQGTLVTVSS VL: DIVLTQPPSVSGAPGQRVTISCSGSSSNIGSNYVSWYQQLPGTAPKLLIHSNSHRPSGVPDRFSGSKSGTSASLAITGLQAEDEADYYCQSWDYESERVVFGGGTKLTVLG

— US20170260272A1 (Novartis, published 2017)
